According to the nanobody polyreactivity screen of Harvey et al. (2022):

Assay: yeast display, Sf9 membrane polyspecificity reagent, FACS + sequencing; frameworks hold sequencing errors
In short: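 Nanobodies from a synthetic yeast display library (Saccharomyces cerevisiae BJ5465), induced 36–48 hours with galactose, were stained 1 hour at 4 °C with 10% biotinylated, detergent-solubilized Sf9 membrane reagent, enriched on streptavidin microbeads, then FACS-sorted. Anti-HA (expression) and streptavidin (reagent binding) fluorescence set low and high (top ~1%) gates. Polyreactivity labels come from the gate of origin. Genes were colony-PCR amplified, MiSeq 2 × 250 sequenced and filtered by CDR length.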

Row | Sequence | polyreactivity (PSR sort gate)
1 | QVQLVESGGGLVQAGGSLRLSCAASGFIFVLYAKGWYRQAPGQERELVAAISRTGGSTYYADSVKGRFTISRDNAKNTVYLQMNSLKPEDTAVYYCAVSRSKTYDYWGQGTQVTVSS | high polyreactivity
2 | QVQLLESGGGLVQAGGTLRLSCAASGRISWYNAMGWYRQAPGKERELVAAIRGGGSTHYADSVKGRFTISRDNAKNTVYLQMNSLKPEDTAVYYCAAYLYYPFYWWRDYWGQGTQVTVSS | high polyreactivity
3 | QVQLVESGGGLVQAGGSLRLSCAASGSTFVRNAMGWYRQAPGKERELVAGISTGDNTYYADSVKWRFTISRDNAKNTVYLQMISLKPEDTAVYYCNATKEFSFGLDYWGQGTQVTVSS | low polyreactivity
4 | QVQLVESGGGLVQAGGSLRLSCAASGFTFYFYALGWYRQAPGKERELVATITIGGRTNYADSVKGRFTISRDNAKNTVYLQMNSLKPEDTAVYYCAAAYLWISRYSGYDYWGQGTQVTVSS | high polyreactivity
5 | QVQLVESGGGFVQAGGSLRLSCAASGRIFKWYAMGWYIQAPGKERELVAAITSGGSTYYADSVKGRFTISRDNAKNTVYLQMNSLKPEDTAVYYCNTALTRWYNQYDYWGQGTLVTVSS | high polyreactivity
6 | QVQIVESGARLVQAGGSLRLSCAASGRTFYAYAMGWYTQAPGKDREYFASIRLRGGSTYYADSVKGRFTISRDNAKNTVYLQMHSLKPEDTAVYYGNAFYGGSSSYWYYSWGQGTQVTVSS | high polyreactivity
7 | QVQLVESGGGLVQAGGSLRLSCAASGSTLALYTMGWYRQAPGKERELVAAISKNGGRTYYADSVKGRFTISRDNAKNTVYLKMNSLKPEDTAVYYCAAASGSYRGYDYWGQGTQVTVSS | high polyreactivity
8 | QVHLVESGGGLVQAGGSLRLSCAASGSIFVENAMGWYRQPPGKEREFVAAITRSGGSTYYADSVKGRFTISRDNAKNTVYLQMNSLKPEDTAVYYCAARIWDEQPAAGYYWGQGTQVTVSS | low polyreactivity
9 | QVQLVESGGGLVQAGGSLRLSCAASGRIFYDYAMGWYRQAPGKERELVAAISGSGGSTYYADSVKGRFTISRDKAKNTVYLQMNSLQPEDTEVYYCNRYTTRYYPGGDYWGHGTQVTVSS | high polyreactivity
10 | QVQLVESGGGLVQAGGSLRLSCAATRRTFYSYAMGWYRQAPGKESELLASITSTGSTYYADSVKGRFTISRDNAKNTVYLQMNSLKPEDTAVYYCAARRQPRYSQRSTYYYWGQGTQVTVSS | high polyreactivity
11 | QVQLVESGGGLVQAGGSHRLSCAASGRTFRQYAMGWYRQAPGKERELVATISSGGSTYYADSVKGRFTISRDNAKNTVYLQMNSLKPEDTAVYYCAAPYWARKYWRKFGPFDYWGQGTQVTVSS | low polyreactivity
12 | QVQLVESGGGLVQAGGSLRLSCAASGRIFSNNAMGWYRQAPGKERELVAAISSSGSTYYADSVKGRFTISRDNAKNTVYLLMNSLKPEDTAVYYCAVVYGYPYLRGYVYGFNYWGQGTQVTVSS | low polyreactivity
13 | QVQLVESGGGLVQAGGSLRLSCAASGSTFRYNAMGWYRQAPGKERELVAAITSGGTTNYADSVKGRFTISRDNAMNTVYLQMNILKPEDTAVYYCGKRGYYWTNLLYFLGYDYWGQGTQVTVSS | low polyreactivity
14 | QVQLVESGGGLVQAGGSLRLSCAASGGIFWRYAMGWYRPAPGKERELVAAISSRGGSTYYADSVKGRFTISRDNAKNTVYLQMNSLKPEDTAVYYCAADRRYAESGYYWGQGTQVTVSS | high polyreactivity
15 | QVQLVESGGGLVQAGGSLRLSCAASGYTIYIYAMGWYRQAPGKEREFVATISRSGGSTSYADSVKGRFTISRDNAKNTVYLQMNSLKPEDTSVYYCAAEWGYYAVGAQYYYWGQGTQVTVSS | high polyreactivity
16 | QVQLVESGGGLVHAGGSLRLSCAASGFIFPGNAMGWYIQAPGKERDLVAAISNSGSRTYYADSVKGRFTISRDNAKNTVYLQMISLKPEDTAVYYCNADVHNRGWPYDYWGQGTQVTVSS | low polyreactivity
17 | QVQLVESGGGLVQAGGSLRLSCAASGYTSAKNGMGWYRQAPGKEREFVAGISRSGSSTYYADSVKGRFTISRDNAKNTVYLQMNSLKPEDTAVYFCAADWSVFTYFYGYDYWGQGTQVTVSS | low polyreactivity
18 | QVQLVESGGGLVQAGGSLRLSCAASGRILYGNVMGWYRQAPGKERELVAAIDSSGATTYYADSVKGRITISRDNAKNTVYLQMNSLKPDDTAVYYCAAEVTSFSFGGDATEYYWGQGTQVTVSS | low polyreactivity
19 | QVQLVESGGGLVQAGGSLRLSCAASGIIFKSYAMGWYRQAPGKERELVAAITKRGGSTYYADSVKGRFTISRDNAKNTVYLQMNSLKPEDSAVYYCAAFAVPYDYWGQGTQVTVSS | high polyreactivity
20 | QVQLVESGGGLVQAGGSLRLICAASGRTFAIYAMGWYRQAPGKEREIVAAISWSGGDTYYADSVKGRFTISRDNEKNTVYLQMNSLKPEDTAVYYCAADRYDYSYFGYGAQDYDYWGQGTQLTVSS | low polyreactivity
21 | QVQLVESGGGLVQAGGSLRLSCAASGFIFVQYAMGWYRQAPGKERELVAAITKSGGRTYYADSVKGRFTISRDNAKNTVYLQMNSLKPEDTAVYYCAALGNGNFPTVDYWGQGTQVTVSS | high polyreactivity
22 | QVQLGESGGGLVQAGGSLRLICAASGSTFYYNAMGWSRQAPGKEWELVAAITYSGGDTYYADSVKGRFTMSRDNAKNTVYLQMNSLKPEDTAVYYCAAEYYWYNVYTGHLWYDYWGQGTQVTVSS | high polyreactivity

Row | Sequence | polyreactivity (PSR sort gate)
23 | QVQLEESGGGLVQAGGSLRLSCAASGSIFQTYAMGWSRQAPGKERQLVAAITSGGGSTYYADSVKGRFTISRDNAKNTVYLQMNSLKREDTAVYYCAAGSRFVSSRLYYWGQGTQVTVSS | high polyreactivity
24 | QVQLVESGGGLVQAGGSLRLSCAASGSIFYNYAMGWYRQAPGKEREFVAGITRSGGTTSYADSVKGRFTISRDNAKNTVYLQMNSLKPEDTAVYYCAAVVYLQAWYGYWDYYYWGQGTQVTVSS | high polyreactivity
25 | QVQLVESGGGLVQAGGSLRLSCAASGSIFQSYAKGWYRQAPGKERELVAAISRGGSTYYADSVKGRFTISRDNAKNTVYLQMNSLKPEDTAVYYCAAGSGGGKYLYYYWGQGTQVTVSS | low polyreactivity
26 | QVQLVESGGGLVQAGGSLRLSCAASGFIIDGYAMGWYRQAPGKERELVAVISQRGSNTYYADSVKGRFTISRDNAKNTVYLQMNSLKPEDTAVYYCAARYKQGDSTGGRMNYWGQGTQVTVSS | high polyreactivity
27 | QVQLVESGGGLVQAGGSLRLSCAASGSIVGSYAMGWYRQAPGKERELVAGIRSGGSTYYADSVKGRFTISRDNAKNTVYLQMNSLKPEDTAVYYCAGHEEYWGHGTQVTVSS | low polyreactivity
28 | QVQLVESGGGLVQAGGSLRLSCAASGSIFKRNAMGWYRQAPGKERELVAAITSSGGTTYYADSVKGRFTISRDNAKNTVYLQMNSLKPEDTAVYYCNAGYGVRSVRRFDYWGQGTQVTVSS | high polyreactivity
29 | QVQLVESGGGLVQAGGSLRLSCAASGSIFGLNAMGWYRQAPGKERELVARISTGSSTNYADSVKGRFTISRDHAKNSVYLQMNSLKPEDTAVYYCNADYPYYPYRENYWGQGTQVTVSS | low polyreactivity
30 | QVQLVESGGGLVQAGGSLRLSCAGSGRIFRTYAMGWFRQAPGKEGEFVAGISRGGSTDYADSVKGRFTISRDNEKNTVYLQMNSLKPEDSAVYYCAAASLRYYSPRVRYPYYYWGQGTQVTVSS | high polyreactivity
31 | QGHLVESGGGLVQAGGSLRLSCAASGFIFDYYAMGWYRQAPRKERELVAAITRDGGGTYYADSVTGRFTISRDNAKNTVYLQMNSLKPEDTAVYYCAARRAVRLYYWGQGTQVTVSS | high polyreactivity
32 | QVQLVESGGGIVQAGGSLRLSCAASGRIFEWYAMGWYRQAPGKERELVAAITKTAGSTYYADSVKGRFTISRDNAKNTVYLQMNSLKPEDTAVYYCNAKTYHSRRKVLRFDYWGQGTQVTVSS | low polyreactivity
33 | QVQLVESGGGLVQAGGSLRLSCAASGSTFQWYAMGWYRQAPGKERELVAGITRTGSTYYADSVKGRFTISRDNAKNTVYLQMNSLKPEDTAVYYCAAKWHTASGKYYYWGQGTQVTVSS | high polyreactivity
34 | QVQLVESGGGLVQAGGSLRLSCAASGRTFHYYAMGWYRQAPGKERELVAAINFSGDNTYYADSVKGRFTISRDNAKNTVYLQLNSLKPEDTAVYYCAARREYARYKGYYYWGQGTQVTVSS | low polyreactivity
35 | QVQLVESGGGLVQAGGSLRLSCAASGRIFLYYAMGWYRQAPGKERELVATISSGGSTHYADSVKGRFTISRDNAKNTVYLQMNSLKPEDTAVYYCAAYGYGWGLEPSTTEMDYWGQGTQVTVSS | low polyreactivity
36 | QVQLVESGGGLVQAGGSLRLNCAASGRNLPFYAMGWYRQAPGKERDLVATISWTSDSTYYADSVKGRFTISRDNPKNTVFLQMNSLIREVTGVYYCASVYTYTYASTVIYDHWGQGTQVTVSS | low polyreactivity
37 | QVQLVESGGGLVQAGGSLRLSCAASGRTFPGYAMGWYRQAPGKERELVAAISWSGTSTYYADSVKGRFTISRDNAKNTVYLQMNSLKPEDTAVYYCNKVYTYSAPYYYWGQGTQVTVSS | high polyreactivity
38 | QVQLVESGGGLVQAGGSLRLSCAASGRIFTAYAMGWYRQAPGKERELVAAISSGDSTYYADSVKGRFTISRDNAKNTVYLQMNSLKPEDTAVYYCAAEGYLWGQSYNGLNYDSWGQGTQVTVSS | low polyreactivity
39 | QVQLVESGGGLVQAGGSLRLSCAASGRTFTHYAMGWYRQAPGKERELVASISDGGRTHYADSVKGRFTISRDNAKNTVYLQMNSLKPEDTAVYYCATDRYPTRRYDYWGQGTQVTVSS | low polyreactivity
40 | QVQLGESGAGLVQAGGSLRLSCAASGRTLRKYAMGLYTQAPGKERELVAAITTSGGSKYYADSVKGRFTISRDNAKNTVYLPMNSLKPEDTAVYYCAKCGYSGYHSSYDYWGQGTQVTVSS | high polyreactivity
41 | QVQLQESGGGLVQAGGSLRQSYAASGYIFPSLAMGWYRQAPGKESEFVAAIGRGSTNNYADSVKGRFTISRDNAKNTAYQQMNSLKPEDTAVYYCAAAASPLTRHLYWGQGTQVTVSS | low polyreactivity
42 | QVQLVESGGGLVQAGGSLRLSCAASGSMFVTNALGWYRQAPGTERELVAAMSVSGGSTYYADSVKGRFTISRDNAKNTVDLQMNSLKPEDTAVYYCNTVRSPPGHDYWGQGTQVTVSS | low polyreactivity
43 | QVQLQERGGGLVQAGASLRQSCAASGTIFTARFMGWYRQAPGKERELVATITDGGNTNDADSVKGRFTSSRDNAKITVYLQMNSLKPEYAAVYYCAAGEVDNDTLLYWGQGSQVTVSS | low polyreactivity
